# Test results as given in patent publication US20170306033A1 (Amgen, published 2017).
# Substitutions are numbered along the chain they refer to.
# T1: human PAC1 receptor (human, UniProt P41586 21-468)
# T1 sequence: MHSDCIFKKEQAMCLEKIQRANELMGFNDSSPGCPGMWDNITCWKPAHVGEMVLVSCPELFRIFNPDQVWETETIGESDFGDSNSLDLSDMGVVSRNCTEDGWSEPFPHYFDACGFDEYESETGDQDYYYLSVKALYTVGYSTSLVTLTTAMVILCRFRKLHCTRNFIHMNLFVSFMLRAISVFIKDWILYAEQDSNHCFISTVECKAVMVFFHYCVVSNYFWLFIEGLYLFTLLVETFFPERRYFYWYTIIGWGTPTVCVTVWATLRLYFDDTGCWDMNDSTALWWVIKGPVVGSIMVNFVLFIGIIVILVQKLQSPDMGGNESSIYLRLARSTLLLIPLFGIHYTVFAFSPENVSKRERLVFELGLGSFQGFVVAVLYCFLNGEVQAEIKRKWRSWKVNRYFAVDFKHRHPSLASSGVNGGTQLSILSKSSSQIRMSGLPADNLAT
# B1: iPS:392517 (bispecific antibody, human IgG1, kappa, lambda, N297G)
# light: DIQLTQSPSFLSASVGDRVTITCRASQSIGRSLHWYQEKPGKAPKLLIKYASQSLSGVPSRFSGSGSGTEFTLTISSLQPEDFATYYCHQSSRLPFTFGPGTKVDIKRTVAAPSVFIFPPSDEQLKSGTASVVCLLNNFYPREAKVQWKVDNALQSGNSQESVTEQDSKDSTYSLESTLTLSKADYEKHKVYACEVTHQGLSSPVTKSFNRGEC
# heavy: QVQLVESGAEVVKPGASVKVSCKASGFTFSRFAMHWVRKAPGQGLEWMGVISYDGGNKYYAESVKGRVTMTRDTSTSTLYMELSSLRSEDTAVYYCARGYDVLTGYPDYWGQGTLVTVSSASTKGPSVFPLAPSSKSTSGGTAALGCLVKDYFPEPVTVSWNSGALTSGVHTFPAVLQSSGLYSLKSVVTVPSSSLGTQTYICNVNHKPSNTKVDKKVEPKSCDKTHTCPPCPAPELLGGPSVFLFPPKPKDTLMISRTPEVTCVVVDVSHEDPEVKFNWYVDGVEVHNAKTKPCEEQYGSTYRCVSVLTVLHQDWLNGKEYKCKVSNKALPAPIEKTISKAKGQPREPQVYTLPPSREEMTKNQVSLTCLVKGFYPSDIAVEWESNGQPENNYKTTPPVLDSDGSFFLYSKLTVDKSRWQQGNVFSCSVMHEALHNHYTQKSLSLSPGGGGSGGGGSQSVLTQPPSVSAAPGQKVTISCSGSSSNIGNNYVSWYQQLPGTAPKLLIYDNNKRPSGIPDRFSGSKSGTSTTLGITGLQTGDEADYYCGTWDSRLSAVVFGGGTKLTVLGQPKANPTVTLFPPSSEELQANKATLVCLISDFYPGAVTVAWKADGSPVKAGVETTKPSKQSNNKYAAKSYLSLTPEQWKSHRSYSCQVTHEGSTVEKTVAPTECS
# chain: QVQLVESGGGVVQPGRSLRLSCAASGFTFSSFGMHWVRQAPGKGLEWVAVISFDGSIKYSVDSVKGRFTISRDNSKNTLFLQMNSLRAEDTAVYYCARDRLNYYDSSGYYHYKYYGMAVWGQGTTVTVSSASTKGPSVFPLAPSSKSTSGGTAALGCLVKDYFPEPVTVSWNSGALTSGVHTFPAVLQSSGLYSLESVVTVPSSSLGTQTYICNVNHKPSNTKVDKKV
# B2: iPS:392523 (bispecific antibody, human IgG1, kappa, lambda, N297G)
# light: B1 light
# heavy: not shown
# chain: B1 chain with Q39E, D105E
# B3: iPS:392521 (bispecific antibody, human IgG1, kappa, lambda, N297G)
# light: B1 light with E38Q
# heavy: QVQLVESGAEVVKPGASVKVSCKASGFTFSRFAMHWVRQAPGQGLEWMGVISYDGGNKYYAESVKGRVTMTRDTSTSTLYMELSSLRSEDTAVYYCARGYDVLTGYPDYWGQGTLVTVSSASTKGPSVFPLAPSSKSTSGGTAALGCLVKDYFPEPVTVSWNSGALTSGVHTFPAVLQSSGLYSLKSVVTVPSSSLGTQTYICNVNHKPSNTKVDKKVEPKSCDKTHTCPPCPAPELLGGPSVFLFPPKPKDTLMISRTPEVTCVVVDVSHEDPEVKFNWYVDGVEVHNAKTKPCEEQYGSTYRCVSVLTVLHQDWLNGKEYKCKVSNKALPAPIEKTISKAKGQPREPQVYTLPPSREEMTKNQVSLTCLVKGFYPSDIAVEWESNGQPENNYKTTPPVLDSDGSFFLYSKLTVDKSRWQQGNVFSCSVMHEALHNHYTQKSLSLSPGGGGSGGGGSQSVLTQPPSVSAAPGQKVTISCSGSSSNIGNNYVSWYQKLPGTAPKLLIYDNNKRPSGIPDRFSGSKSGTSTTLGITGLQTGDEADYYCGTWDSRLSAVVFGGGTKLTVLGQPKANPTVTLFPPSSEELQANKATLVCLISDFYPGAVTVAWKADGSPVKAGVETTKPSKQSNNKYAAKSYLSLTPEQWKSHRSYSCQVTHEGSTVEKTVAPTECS
# chain: B1 chain with Q39E, D105E
# B4: iPS:392522 (bispecific antibody, human IgG1, kappa, lambda, N297G)
# light: B1 light
# heavy: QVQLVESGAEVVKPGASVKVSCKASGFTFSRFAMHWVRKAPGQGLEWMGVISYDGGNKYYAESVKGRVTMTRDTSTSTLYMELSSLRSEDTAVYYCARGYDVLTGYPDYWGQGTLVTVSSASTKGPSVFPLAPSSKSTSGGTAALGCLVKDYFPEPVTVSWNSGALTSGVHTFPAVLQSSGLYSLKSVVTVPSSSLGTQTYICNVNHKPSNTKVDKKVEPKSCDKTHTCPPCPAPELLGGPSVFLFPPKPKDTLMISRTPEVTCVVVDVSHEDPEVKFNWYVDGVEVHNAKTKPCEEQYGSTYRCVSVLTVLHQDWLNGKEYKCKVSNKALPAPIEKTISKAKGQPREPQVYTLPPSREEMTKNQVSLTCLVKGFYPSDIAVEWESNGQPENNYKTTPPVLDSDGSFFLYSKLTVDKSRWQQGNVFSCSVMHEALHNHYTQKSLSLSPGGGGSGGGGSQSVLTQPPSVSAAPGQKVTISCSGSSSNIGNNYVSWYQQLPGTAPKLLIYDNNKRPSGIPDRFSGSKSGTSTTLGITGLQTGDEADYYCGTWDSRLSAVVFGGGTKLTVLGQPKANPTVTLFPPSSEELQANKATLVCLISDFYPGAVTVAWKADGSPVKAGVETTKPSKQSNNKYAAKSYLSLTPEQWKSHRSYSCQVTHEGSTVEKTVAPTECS
# chain: B1 chain with D105E
# B5: iPS:392518 (bispecific antibody, human IgG1, kappa, lambda, N297G)
# light: B1 light
# heavy: not shown
# chain: B1 chain with Q39E
# B6: iPS:392519 (bispecific antibody, human IgG1, kappa, lambda, N297G)
# light: B1 light with E38Q
# heavy: not shown
# chain: QVQLVESGGGVVQPGRSLRLSCAASGFTFSSFGMHWVREAPGKGLEWVAVISFDGSIKYSVDSVKGRFTISRDNSKNTLFLQMNSLRAEDTAVYYCARDRLNYYESSGYYHYKYYGMAVWGQGTTVTVSSGQPKANPTVTLFPPSSEELQANKATLVCLISDFYPGAVTVAWKADGSPVKAGVETTKPSKQSNNKYAAESYLSLTPEQWKSHRSYSCQVTHEGSTVEKTVAPTECS
# B7: iPS:392520 (bispecific antibody, human IgG1, kappa, lambda, N297G)
# light: B1 light with E38Q
# heavy: not shown
# chain: B1 chain with D105E
# B8: iPS:392524 (bispecific antibody, human IgG1, kappa, lambda, N297G)
# light: QSVLTQPPSVSAAPGQKVTISCSGSSSNIGNNYVSWYQQLPGTAPKLLIYDNNKRPSGIPDRFSGSKSGTSTTLGITGLQTGDEADYYCGTWDSRLSAVVFGGGTKLTVLGQPKANPTVTLFPPSSEELQANKATLVCLISDFYPGAVTVAWKADGSPVKAGVETTKPSKQSNNKYAAKSYLSLTPEQWKSHRSYSCQVTHEGSTVEKTVAPTECS
# heavy: not shown
# chain: QVQLVESGAEVVKPGASVKVSCKASGFTFSRFAMHWVRQAPGQGLEWMGVISYDGGNKYYAESVKGRVTMTRDTSTSTLYMELSSLRSEDTAVYYCARGYDVLTGYPDYWGQGTLVTVSSTVAAPSVFIFPPSDEQLKSGTASVVCLLNNFYPREAKVQWKVDNALQSGNSQESVTEQDSKDSTYSLKSTLTLSKADYEKHKVYACEVTHQGLSSPVTKSFNRGEC
# B9: iPS:392534 (bispecific antibody, human IgG1, kappa, lambda, N297G)
# light: B8 light with Q39K
# heavy: not shown
# chain: QVQLVESGAEVVKPGASVKVSCKASGFTFSRFAMHWVRQAPGQGLEWMGVISYDGGNKYYAESVKGRVTMTRDTSTSTLYMELSSLRSEDTAVYYCARGYDVLTGYPDYWGQGTLVTVSSASTKGPSVFPLAPSSKSTSGGTAALGCLVKDYFPEPVTVSWNSGALTSGVHTFPAVLQSSGLYSLKSVVTVPSSSLGTQTYICNVNHKPSNTKVDKKV
# B10: iPS:392535 (bispecific antibody, human IgG1, kappa, lambda, N297G)
# light: B8 light with Q39K
# heavy: not shown
# chain: B9 chain with Q39K
# B11: iPS:392526 (bispecific antibody, human IgG1, kappa, lambda, N297G)
# light: B8 light
# heavy: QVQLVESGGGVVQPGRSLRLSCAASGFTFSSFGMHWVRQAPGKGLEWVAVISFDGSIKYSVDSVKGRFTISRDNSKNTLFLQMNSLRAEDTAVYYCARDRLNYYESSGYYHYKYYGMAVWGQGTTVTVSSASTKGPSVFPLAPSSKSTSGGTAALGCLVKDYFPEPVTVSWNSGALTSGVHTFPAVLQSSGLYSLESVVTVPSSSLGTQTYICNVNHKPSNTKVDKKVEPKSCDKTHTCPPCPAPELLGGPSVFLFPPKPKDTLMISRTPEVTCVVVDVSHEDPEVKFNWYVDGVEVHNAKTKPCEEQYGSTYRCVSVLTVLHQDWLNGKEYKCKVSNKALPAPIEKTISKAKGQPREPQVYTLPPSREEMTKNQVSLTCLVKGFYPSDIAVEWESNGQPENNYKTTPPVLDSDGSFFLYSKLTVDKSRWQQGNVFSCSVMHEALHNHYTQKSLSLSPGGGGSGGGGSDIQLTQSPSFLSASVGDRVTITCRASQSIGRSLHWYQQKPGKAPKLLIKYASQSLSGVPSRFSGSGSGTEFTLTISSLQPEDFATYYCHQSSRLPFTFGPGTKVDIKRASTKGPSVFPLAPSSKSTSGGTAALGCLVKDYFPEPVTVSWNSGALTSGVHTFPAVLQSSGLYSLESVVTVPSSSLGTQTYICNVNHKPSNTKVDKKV
# chain: B8 chain
# B12: iPS:392531 (bispecific antibody, human IgG1, kappa, lambda, N297G)
# light: B8 light with Q39K
# heavy: not shown
# chain: B9 chain with Q39K
# B13: iPS:392530 (bispecific antibody, human IgG1, kappa, lambda, N297G)
# light: B8 light with Q39K
# heavy: not shown
# chain: B9 chain
# B14: iPS:392528 (bispecific antibody, human IgG1, kappa, lambda, N297G)
# light: B8 light
# heavy: not shown
# chain: B9 chain
# B15: iPS:392525 (bispecific antibody, human IgG1, kappa, lambda, N297G)
# light: B8 light
# heavy: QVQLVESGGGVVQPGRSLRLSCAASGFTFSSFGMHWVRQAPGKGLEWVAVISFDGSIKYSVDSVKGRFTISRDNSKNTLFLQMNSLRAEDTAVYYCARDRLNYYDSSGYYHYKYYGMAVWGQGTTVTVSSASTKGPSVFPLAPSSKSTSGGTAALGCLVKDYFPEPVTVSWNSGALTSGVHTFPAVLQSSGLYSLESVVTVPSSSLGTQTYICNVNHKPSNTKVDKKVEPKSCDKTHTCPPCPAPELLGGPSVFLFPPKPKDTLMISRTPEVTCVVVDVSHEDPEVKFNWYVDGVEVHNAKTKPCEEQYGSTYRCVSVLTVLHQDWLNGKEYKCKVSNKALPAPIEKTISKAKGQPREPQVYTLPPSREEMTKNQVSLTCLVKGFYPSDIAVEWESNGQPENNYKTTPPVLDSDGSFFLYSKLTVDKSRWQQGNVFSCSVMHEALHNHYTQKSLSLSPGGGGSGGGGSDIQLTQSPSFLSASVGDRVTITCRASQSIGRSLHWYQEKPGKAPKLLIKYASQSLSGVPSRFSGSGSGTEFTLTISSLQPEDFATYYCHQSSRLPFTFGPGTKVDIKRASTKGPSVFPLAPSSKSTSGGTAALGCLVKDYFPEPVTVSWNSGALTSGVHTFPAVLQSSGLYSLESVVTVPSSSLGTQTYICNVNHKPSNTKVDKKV
# chain: B8 chain with Q39K
# B16: iPS:392529 (bispecific antibody, human IgG1, kappa, lambda, N297G)
# light: B8 light
# heavy: not shown
# chain: B9 chain with Q39K
# B17: iPS:392527 (bispecific antibody, human IgG1, kappa, lambda, N297G)
# light: B8 light
# heavy: not shown
# chain: B8 chain with Q39K
# B18: iPS:392533 (bispecific antibody, human IgG1, kappa, lambda, N297G)
# light: B8 light
# heavy: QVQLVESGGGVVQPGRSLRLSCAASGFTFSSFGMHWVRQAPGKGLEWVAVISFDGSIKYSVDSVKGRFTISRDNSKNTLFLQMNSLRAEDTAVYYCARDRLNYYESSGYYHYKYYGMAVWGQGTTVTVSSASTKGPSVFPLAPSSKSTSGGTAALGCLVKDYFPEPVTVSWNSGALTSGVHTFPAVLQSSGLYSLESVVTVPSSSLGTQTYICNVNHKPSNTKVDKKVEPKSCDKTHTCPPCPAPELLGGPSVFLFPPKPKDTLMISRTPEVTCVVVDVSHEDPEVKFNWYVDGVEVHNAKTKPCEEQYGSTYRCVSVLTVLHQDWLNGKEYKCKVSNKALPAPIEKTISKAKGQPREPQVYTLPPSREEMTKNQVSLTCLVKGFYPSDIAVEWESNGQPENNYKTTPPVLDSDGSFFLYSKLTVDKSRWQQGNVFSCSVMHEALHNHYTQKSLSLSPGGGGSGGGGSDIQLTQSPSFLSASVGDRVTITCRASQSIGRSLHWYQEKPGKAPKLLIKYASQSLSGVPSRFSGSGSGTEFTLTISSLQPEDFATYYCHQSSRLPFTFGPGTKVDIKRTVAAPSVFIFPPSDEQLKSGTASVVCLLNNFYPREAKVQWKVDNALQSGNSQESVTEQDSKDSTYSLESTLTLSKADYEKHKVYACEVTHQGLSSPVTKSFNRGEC
# chain: B9 chain with Q39K
# B19: iPS:392532 (bispecific antibody, human IgG1, kappa, lambda, N297G)
# light: B8 light
# heavy: not shown
# chain: B9 chain
# Target: T1, human PAC1 receptor
# Test: cell-based or functional assay
"Human PAC1 Receptor IC50 (nM), lot #1 [nM]","Human PAC1 Receptor IC50 (nM), lot #2 [nM]",Human PAC1 Receptor IC50 [nM],Binder
2.48,7.75,–,B1
–,–,5.03,B2
–,–,6.88,B3
9.32,3.29,–,B4
–,–,3.4,B5
–,–,6.87,B6
–,–,6.28,B7
–,–,81.2,B8
–,–,349,B9
–,–,365,B10
–,–,116,B11
–,–,> 1000,B12
–,–,> 1000,B13
–,–,> 1000,B14
–,–,37.1,B15
–,–,> 1000,B16
–,–,16.4,B17
–,–,206,B18
–,–,352,B19

# Target: human CGRP receptor (human, UniProt Q16602 23-461; O60894 27-148)
# Test: cell-based or functional assay
# human CGRP receptor, sequence (Q16602 23-461 limits assumed, chain 1 of 2): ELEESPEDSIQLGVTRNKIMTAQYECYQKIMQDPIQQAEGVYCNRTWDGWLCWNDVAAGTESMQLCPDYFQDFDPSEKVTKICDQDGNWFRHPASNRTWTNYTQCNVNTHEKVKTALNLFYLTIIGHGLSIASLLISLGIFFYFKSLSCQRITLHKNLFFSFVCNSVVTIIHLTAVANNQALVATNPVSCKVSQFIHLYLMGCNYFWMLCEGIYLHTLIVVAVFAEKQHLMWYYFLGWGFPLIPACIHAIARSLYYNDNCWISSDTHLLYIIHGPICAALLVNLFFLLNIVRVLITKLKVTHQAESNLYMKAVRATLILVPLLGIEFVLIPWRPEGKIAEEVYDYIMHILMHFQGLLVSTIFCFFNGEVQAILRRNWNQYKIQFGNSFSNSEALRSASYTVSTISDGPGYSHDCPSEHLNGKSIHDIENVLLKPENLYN
# human CGRP receptor, sequence (O60894 27-148 limits assumed, chain 2 of 2): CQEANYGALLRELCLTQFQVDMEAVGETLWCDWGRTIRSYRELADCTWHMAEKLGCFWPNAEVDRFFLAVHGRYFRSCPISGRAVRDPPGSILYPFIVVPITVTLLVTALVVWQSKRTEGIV
"Human CGRP Receptor IC50 (nM), lot #1 [nM]","Human CGRP Receptor IC50 (nM), lot #2 [nM]",Human CGRP Receptor IC50 [nM],Binder
10.9,11.5,–,B1
–,–,20.4,B2
–,–,18.8,B3
8.8,7.58,–,B4
–,–,17.8,B5
–,–,81.3,B6
–,–,10.5,B7
–,–,0.86,B8
–,–,0.37,B9
–,–,0.41,B10
–,–,0.71,B11
–,–,0.42,B12
–,–,0.38,B13
–,–,0.55,B14
–,–,1.22,B15
–,–,0.56,B16
–,–,0.42,B17
–,–,0.59,B18
–,–,0.51,B19
